From publication PMC4506123, “Identification of an Isothiocyanate on the HypEF Complex Suggests a Route for Efficient Cyanyl–Group Channeling during [NiFe]–Hydrogenase Cofactor Generation” (PLoS ONE, 2015)

Target: T1, HypF (E. coli, UniProt P30131 1-750)
T1 construct: HypF, carbamoyltransferase of [NiFe]-hydrogenase maturation of E. coli; 82 kDa; also called His-tagged HypF; auxiliary protein HypF; source: isolated from E. coli, purified as described previously [21] with 10 mM magnesium acetate in all buffers
T1 sequence (looked up): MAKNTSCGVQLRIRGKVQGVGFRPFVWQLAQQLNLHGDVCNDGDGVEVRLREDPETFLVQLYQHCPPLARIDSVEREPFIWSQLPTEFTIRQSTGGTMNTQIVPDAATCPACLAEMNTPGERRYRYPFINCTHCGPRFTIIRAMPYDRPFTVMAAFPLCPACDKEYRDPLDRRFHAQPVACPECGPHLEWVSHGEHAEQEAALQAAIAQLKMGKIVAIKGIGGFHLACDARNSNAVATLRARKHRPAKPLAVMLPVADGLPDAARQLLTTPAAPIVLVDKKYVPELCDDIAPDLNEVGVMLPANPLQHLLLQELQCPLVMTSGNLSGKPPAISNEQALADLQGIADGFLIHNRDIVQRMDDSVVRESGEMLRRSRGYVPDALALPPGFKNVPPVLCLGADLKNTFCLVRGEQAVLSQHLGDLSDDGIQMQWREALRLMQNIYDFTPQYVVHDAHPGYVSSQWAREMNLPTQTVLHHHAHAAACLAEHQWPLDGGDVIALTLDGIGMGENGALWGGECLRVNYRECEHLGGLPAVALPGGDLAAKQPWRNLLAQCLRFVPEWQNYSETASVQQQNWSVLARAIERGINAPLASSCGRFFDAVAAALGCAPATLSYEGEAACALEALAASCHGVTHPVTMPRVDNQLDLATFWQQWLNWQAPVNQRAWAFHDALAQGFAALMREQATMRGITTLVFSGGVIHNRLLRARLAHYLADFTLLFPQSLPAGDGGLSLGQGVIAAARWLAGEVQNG
Test: native gel or EMSA; native PAGE as described earlier [35,36]; isolated HypE and HypF; no further conditions told for this experiment
Details: both partners purified

binding result: binds
B1: HypE (natural protein, E. coli, UniProt P24193 1-336, looked up)
chain: MNNIQLAHGSGGQAMQQLINSLFMEAFANPWLAEQEDQARLDLAQLVAEGDRLAFSTDSYVIDPLFFPGGNIGKLAICGTANDVAVSGAIPRYLSCGFILEEGLPMETLKAVVTSMAETARAAGIAIVTGDTKVVQRGAVDKLFINTAGMGAIPANIHWGAQTLTAGDVLLVSGTLGDHGATILNLREQLGLDGELVSDCAVLTPLIQTLRDIPGVKALRDATRGGVNAVVHEFAAACGCGIELSEAALPVKPAVRGVCELLGLDALNFANEGKLVIAVERNAAEQVLAALHSHPLGKDAALIGEVVERKGVRLAGLYGVKRTLDLPHAEPLPRIC
notes: HypE, [NiFe]-hydrogenase maturation protein of E. coli; 36 kDa monomer; C-terminal cysteine C336 in E. coli nomenclature; also called His-tagged HypE; auxiliary protein HypE; source: isolated from E. coli, purified as described previously [21] with 10 mM magnesium acetate in all buffers
